According to PMC5400778:

Molecular target: His-tagged BG505 SOSIP.664 trimer with the N185h glycan site removed (HIV (isolate BG505)) (UniProt Q2N0S6)
Test: SPR; Biacore 3000, 25°C; His-tagged BG505 SOSIP trimers immobilised on the chip by His-tag capture; PGT145 Fab as analyte; kinetic analysis

B1: PGT145 Fab (Fab, V domains shown)
VH: QVQLVQSGAEVKKPGSSVKVSCKASGNSFSNHDVHWVRQATGQGLEWMGWMSHEGDKTGLAQKFQGRVTITRDSGASTVYMELRGLTADDTAIYYCLTGSKHRLRDYFLYNEYGPNYEEWGDYLATLDVWGHGTAVTVSS
VL: EVVITQSPLFLPVTPGEAASLSCKCSHSLQHSTGANYLAWYLQRPGQTPRLLIHLATHRASGVPDRFSGSGSGTDFTLKISRVESDDVGTYYCMQGLHSPWTFGQGTKVEIK
B1 was tested, and the stoichiometry N was 0.96.
